Laboratory results as given in paper PMC4943950, “T4 Phage Tail Adhesin Gp12 Counteracts LPS-Induced Inflammation In Vivo” (Frontiers in Microbiology, 2016).

Target: the molecule itself
Assay: SDS-PAGE of the non-heated sample (SDS-resistant oligomer); purified gp12 final preparation, not heated before SDS-PAGE, ambient temperature; trimer band at 172.5 kDa

B1: T4 phage short tail fiber protein (tail adhesin) gp12, recombinant, His-tagged (natural protein, bacteriophage T4, UniProt P10930 1-527, looked up)
chain: MSNNTYQHVSNESRYVKFDPTDTNFPPEITDVQAAIAAISPAGVNGVPDASSTTKGILFIPTEQEVIDGTNNTKAVTPATLATRLSYPNATETVYGLTRYSTNDEAIAGVNNESSITPAKFTVALNNAFETRVSTESSNGVIKISSLPQALAGADDTTAMTPLKTQQLAIKLIAQIAPSETTATESDQGVVQLATVAQVRQGTLREGYAISPYTFMNSSSTEEYKGVIKLGTQSEVNSNNASVAVTGATLNGRGSTTSMRGVVKLTTTAGSQSGGDASSALAWNADVIQQRGGQIIYGTLRIEDTFTIANGGANITGTVRMTGGYIQGNRIVTQNEIDRTIPVGAIMMWAADSLPSDAWRFCHGGTVSASDCPLYASRIGTRYGGNPSNPGLPDMRGLFVRGSGRGSHLTNPNVNGNDQFGKPRLGVGCTGGYVGEVQIQQMSYHKHAGGFGEHDDLGAFGNTRRSNFVGTRKGLDWDNRSYFTNDGYEIDPESQRNSKYTLNRPELIGNETRPWNISLNYIIKVKE
notes: No step that removes the His-Tag is described; also called phage adhesin
  stoichiometry N: 3
